In publication PMC7095019:

Molecular target: H1 A/New Caledonia/20/1999 haemagglutinin, wild-type trimeric protein (influenza A virus A/New Caledonia/20/1999 (H1N1)) (UniProt Q6WG00)
Test: ELISA

CR6261 inferred germline antibody, germline heavy and germline light chain, soluble IgG
ELISA endpoint dilution titre: > 100 µg/mL

CR6261 somatic (mature) antibody, somatic heavy and somatic light chain, soluble IgG
ELISA endpoint dilution titre: 0.00133 µg/mL
